Data taken from patent US20250250357A1 (NANJING ZAIMING PHARMACEUTICAL, published 2025).

T1: human MSLN-R1-his protein (human, UniProt Q13421 296-390)
T1 construct: Region 1 of human MSLN, His-tagged; also called human MSLN-R1 protein; hMSLN-R1-his; not shown: His tag
T1 chain: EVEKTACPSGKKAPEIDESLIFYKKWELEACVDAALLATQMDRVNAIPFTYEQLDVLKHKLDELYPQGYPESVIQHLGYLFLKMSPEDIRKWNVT

B1: S009-F2.58.8 (antibody, human IgG1, kappa, V domains shown)
VH: QVQLLQSGAELAKPGASVKLSCKASGYTFTSYWVHWVKQRPGQGLEWIGYINPNSGYTKYNQKFKDKATLTADKSSSTAYMQLSSLTYEDSAVYYCADHYYGSSRDYFDYWGQGTTLTVSS
VL: QIVLTQSPAIMSASPGEKVTMTCSASSSVSYMYWYQQRPGSSPRLLIYDTSNLASGVPVRFSGSGSGTSYSLTISRMEAEDAATYYCQQWNSYPYTFGGGTKLEIKR
notes: Human-murine chimeric antibody, human IgG1/kappa constant regions
B2: S009-F2.47.1 (antibody, human IgG1, kappa, V domains shown)
VH: QVQLQQPGAELVKPGASVKLSCKASGYTFTSYWMHWVKQRPGQGLEWIGMIHPNSGSTNYNEKFKSKATLTVDKSSSTAYMQLSSLTSEDSAVYYCARPVVPYWYFDVWGTGTTVTVSS
VL: DIVMTQSQKFMSTTVGDRVSITCKASQNVGTAVAWYQQKPGQSPKLLIYSASNRYTGVPDRFTGSGSGTDFTLTISNMQSEDLADYFCQQSSSYPLTFGAGTKLELKR
notes: as for B1
B3: S009-F2.23.12 (antibody, human IgG1, kappa, V domains shown)
VH: QVQLQQPGTELVKPGASVKLSCKASGYTFTNYWMHWVKQRPGQGLEWIGNINPSNGGPYYNERFRSKATLTVDKSSSTAYMQLSSLTSEDSAVYYCARPYYGSSYGYFDYWGQGTTLTVSS
VL: DIQMTQSPSSLSASLGGKVTITCKASQDINKYIAWYQHKPGKGPRLLIHYTSELQPGIPSRFSGNGSGRDYSFSISNLEPEDIATYYCLQYANPLRTFGGGTKLEIKR
notes: as for B1
B4: S009-F2.39.3 (antibody, human IgG1, kappa, V domains shown)
VH: QVQLQQPGTELVKPGASVKLSCKASGYTFTNYWMHWVKQRPGQGLEWIGNINPSSGDSYYNERFMSKAKMTVDKSSSTAYMQLSSLTSEDSAVYYCARSGGLWLAFWGPGTLVTVSA
VL: DIVMTQSPSSLAMSVGQKVTMSCKSSQTLLNSVSQNNYLAWYQQKPGQSPTLLVYFASTRESGVPDRFIGGGSGTDFTLTISSVQAEDLADYFCQQHYRTPYTFGGGTNLEIKR
notes: as for B1

Molecular target: T1, human MSLN-R1-his protein
Test: ELISA, coated MSLN-R1;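 also: serially diluted chimeric antibodies bound to the coated, BSA-blocked plate for 2 h at 37 °C, with TMB colour read after acid stop and a negative control antibody alongside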
Protocol: The plate was sealed with a plastic film and incubated at 4° C. overnight. The next day, the plate was washed twice with PBST, and a blocking buffer [PBS+2% (w/w) BSA] was added for blocking at room temperature for 2 h. The blocking buffer was discarded, and a chimeric antibody or negative control antibody serially diluted from 100 nM was added at 50 μL/well. After incubation at 37° C. for 2 h, the plate was washed 3 times with PBST. […] After incubation at 37° C. for 2 h, the plate was washed 5 times with PBST. A TMB substrate was added at 50 μL/well for incubation at room temperature for 5-10 min, and then a stop solution (1.0 N HCl) was added at 50 μL/well.

OD450 at 0.0001 nM [OD450] | OD450 at 0.001 nM [OD450] | OD450 at 0.01 nM [OD450] | OD450 at 0.1 nM [OD450] | OD450 at 1 nM [OD450] | OD450 at 10 nM [OD450] | OD450 at 100 nM [OD450] | OD450 at none (no antibody) [OD450] | Binder
0.05 | 0.05 | 0.05 | 0.06 | 0.13 | 0.43 | 0.83 | 0.06 | B1
0.05 | 0.05 | 0.05 | 0.05 | 0.09 | 0.23 | 0.36 | 0.06 | B2
0.05 | 0.05 | 0.06 | 0.05 | 0.05 | 0.05 | 0.06 | 0.06 | B3
0.05 | 0.05 | 0.05 | 0.05 | 0.05 | 0.06 | 0.07 | 0.06 | B4

Each binder was assayed against T2, human MSLN-FL-his protein (human, UniProt Q13421 296-580) (assay: ELISA, coated MSLN full-length;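 also: binding of chimeric antibodies to plate-bound antigen, read by TMB colour after acid stop, antibody incubated 2 h at 37 °C, negative control antibody run alongside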).
T2 construct: also called human MSLN full-length protein; hMSLN-FL-his; not shown: His tag

OD450 at 0.0001 nM [OD450] | OD450 at 0.001 nM [OD450] | OD450 at 0.01 nM [OD450] | OD450 at 0.1 nM [OD450] | OD450 at 1 nM [OD450] | OD450 at 10 nM [OD450] | OD450 at 100 nM [OD450] | OD450 at none (no antibody) [OD450] | Binder
0.05 | 0.06 | 0.09 | 0.4 | 1.56 | 2.47 | 2.87 | 0.06 | B1
0.06 | 0.1 | 0.45 | 1.78 | 2.31 | 2.4 | 2.57 | 0.06 | B2
0.05 | 0.06 | 0.24 | 1.27 | 2.21 | 2.5 | 2.72 | 0.06 | B3
0.05 | 0.05 | 0.08 | 0.42 | 1.57 | 2.37 | 2.53 | 0.06 | B4
